From PMC10433963 (2023)

B1: GntR (recombinant) (natural protein)
chain: MSPTPDPQSAVPAREIAYRIVYDAIASGRYLPGQWIREDEVTAEAGVSRTPLREALQRLQSEGLVQLVRHRGALVVGWTSADLDDLFDIRVALETYGARRAAQRRGGAQLESLQKLCASMDEILPAAQEPELQQLGHLCIDFHRGIHEAADNRKLLSVMPMVLAPPFVSEAFHHHTRLELEQAFAHHRELVEAIAIGDEDWAEGVMRAHLRHGRRSLRRMERHLPLMTSHDAEPAVTDTGQPETTSSDPVHE
B2: Magnesium chelatase (recombinant) (natural protein)
chain: MVSQPKDLPRTVGELRASGHRERGVKAEIRENLLAALAERRDVWPGILGFEDTVIPQLERALIAGHDVVLLGERGQGKTRLLRALTGLLDEWTPVIAGSELGEHPYSPITPESIRRAADSGDDLPVEWRHRSERYTEKLATPDTSVADLVGDIDPIKVAEGRSLGDPETIAYGLIPRAHRGIVAVNELPDLAERIQVAMLNVMEERDIQVRGYTLRLPLDVLVVASANPEDYTNRGRIITPLKDRFGAEIRTHYPLELEAEVGVIRQEAELAAEVPEYLLAVLARFARNLRESNSIDQRSGVSARFAIAAAETVAASARHRAAILGEDDPVARVVDLGTVIDVLRGKLEFETGEEGREQAVLEHLLRRATADTAQRLLGGIDVGPLVAAIEEGSPVTTGERVSAKDVVAALPDLPAIDAIAHRLNAVSVGQRAAAIELALEALYLAKRIDKVSGEGETVYG
B3: XRE (recombinant) (natural protein)
chain: MAQDENLAAVVSNAAQDIGSFIRAQREAAQVSVRQLAEKAGVSNPYLSQIERGLRKPSADVLNQIAKALRVSAEVLYVRAGILEPSEPSEVRDAIVNDVSITERQKQVLLDIYTSFRQQNEAAGEPEGAAVIPSPDEEPATD
B4: DnaJ1 (recombinant) (natural protein)
chain: MAQREWVEKDFYKELGVSSDASADEIKKAYRKLAAELHPDRNSDPGAAERFKAVSEANSVLSDPAKRKEYDETRRLFAGGFGRRFNQGGGGFGGGFGSDGVEFNLGDLFDAAGQTGGANIGDLFGGLFGRGPQQRPSRPRRGNDLETETELSFLEATKGVAMPLRLTSPAPCTNCHGSGARPGTSPKVCPSCNGSGVISRNQGAFGFSEPCTECRGSGSIIEHPCQECRGTGVTTRTRTINVRIPPGVEDGQRIRLAGQGEAGLRGAPSGDLYVTVHVRPDKVFGRDGDDLTVTVPVSFHELALGTTLSVPTLDGKVGVRVPKGTSDGRILRVRGRGVPKRSGGHGDLLVTVKVAVPPNLEGEAAEALEAYAKAERASGFDPRAGWAGNV

Target: ^H7-SUMOClpC1^FLAG (recombinant ClpC1) (M. smegmatis, UniProt A0R574 1-848)
Test: MST; 1 mM ATPγS; Kapp from Hill fit

^H7-SUMOClpC1^FLAG (recombinant ClpC1), sequence (A0R574 whole entry): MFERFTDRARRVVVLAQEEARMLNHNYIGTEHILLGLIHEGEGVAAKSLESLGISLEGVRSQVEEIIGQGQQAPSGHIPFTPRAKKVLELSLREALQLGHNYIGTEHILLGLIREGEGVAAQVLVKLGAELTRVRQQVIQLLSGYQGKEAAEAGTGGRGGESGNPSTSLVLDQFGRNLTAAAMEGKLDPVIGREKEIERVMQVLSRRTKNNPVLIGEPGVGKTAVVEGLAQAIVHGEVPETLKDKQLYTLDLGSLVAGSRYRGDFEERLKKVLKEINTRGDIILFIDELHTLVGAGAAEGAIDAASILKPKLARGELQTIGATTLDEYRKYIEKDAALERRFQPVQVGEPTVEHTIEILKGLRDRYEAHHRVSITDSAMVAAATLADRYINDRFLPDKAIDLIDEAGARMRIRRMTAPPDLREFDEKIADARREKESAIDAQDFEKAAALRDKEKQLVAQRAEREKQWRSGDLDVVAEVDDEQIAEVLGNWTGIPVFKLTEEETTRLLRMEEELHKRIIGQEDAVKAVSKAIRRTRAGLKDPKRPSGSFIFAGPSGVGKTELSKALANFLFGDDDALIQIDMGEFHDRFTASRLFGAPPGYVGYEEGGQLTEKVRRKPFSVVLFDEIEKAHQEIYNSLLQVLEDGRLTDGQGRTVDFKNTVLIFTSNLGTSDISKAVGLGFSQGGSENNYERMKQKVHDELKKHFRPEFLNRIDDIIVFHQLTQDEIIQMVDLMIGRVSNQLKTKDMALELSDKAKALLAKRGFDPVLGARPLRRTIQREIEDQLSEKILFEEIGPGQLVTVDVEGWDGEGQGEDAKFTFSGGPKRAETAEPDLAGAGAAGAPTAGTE

Row | Binder | Kd [µM]
1 | B1 | 3.3
2 | B2 | 6.7
3 | B3 | 4.6
4 | B4 | 6.4
